Assay results taken from the DeepSol protein solubility set.

Experiment: soluble on expression in E. coli; label from the status in PepcDB or PDB records

| Sequence | soluble on expression in E. coli |
| --- | --- |
| MGSDKIHHHHHHMALYKTESGEIHLVRDICPHRGVPLTKGWVDGEEIVCPYHGLRYNTEGKCTQIPAQPELTKISDRFSLTKFPVVQRYGLIWTSIHGRDVTQANIPVLDTWDDAEHQAILPPFVDIGGSSGRQLEGFIDVAHFAWVHHNAFANRDNPIVPKYHTERTNYGLKTVYISNVSNYPHELKHLEPEGFLWKRTFEVYPPFSAVLTVDFPEGGILKILNACCPISSNKTRLFVPLTRNFDQTGDLEKVYAFNAQIFAEDQDMVESQKPEELPLDLMMEAHFEADRSSTTYRRILAEWGLSKRYTV | not soluble |
| SGQTALAGGSSSTPTPQALYPDLSCPEGLEELLSAPPPDLGAQRRHGWNPKDCSENIEVKEGGLYFERRPVAQSTDGARGKRGYSRGLHAWEISWPLEQRGTHAVVGVATALAPLQTDHYAALLGSNSESWGWDIGRGKLYHQSKGPGAPQYPAGTQGEQLEVPERLLVVLDMEEGTLGYAIGGTYLGPAFRGLKGRTLYPAVSAVWGQCQVRIRYLGERRAEPHSLLHLSRLCVRHNLGDTRLGQVSALPLPPAMKRYLLYQ | not soluble |
| TSKKKRQRGSRTHGGGSHKNRRGAGHRGGRGDAGRDKHEFHNHEPLGKSGFKRPQKVQEEAATIDVREIDENVTLLAADDVAEVEDGGFRVDVRDVVEEADDADYVKVLGAGQVRHELTLIADDFSEGAREKVEGAGGSVELTDLGEERQAEAEETEDADADEE | soluble |
| MGFEQLAELRDRLRAQAAQAKPAQTKSSAGRAKKREAVEPGVEAIWRLQRHFPLAFPKSPAAKVPLKQGILQDAQQHLELLGITAEQLKQAIATWCQGSRYWSCMVEDAPRLDLQGQVAGKVTAEQAVYARRQASRRQREQMREKRAKRAQAGGEAPAATEAPTPEAPATEASPEAN | not soluble |
| MSLNKTQAQVSHALKSLARKEEWKHRLQQSEELHDILLKAANRYVAGEKRSDGLAIARKLQAKGYGISLENIGENTKLLAQCREAKMEFDQLIEDVGAIAPGQTVSFDLSHIGLSYQFDTAYGHLIELAEKANEHEVTLMISMEESTKTDQILAVYRQAAELYSNIGITLQAHLFRTPDDLRKLVQLPGKIRIVKGAYQEPSHLAMERSDYLNNRYLELVDHLVSTNHPVSVATHDQKLLEEMERRQFLQSTDVEIEMLYGIQPSQLKLFKEKGYQTRVYLTYGHEWFLYLCHRLAEYPENIYTALIDIINPSLPKVDDMYEGHHHHHH | soluble |
| MGSDKIHHHHHHMRITNTLTGKKEEFVPIQPGVVRMYVCGPTVYDLIHVGNARPALVFDVFRRYLEYRGYRVIMVQNFTDIDDKIINKANQLGVDYKTVADTFIAEYWRDAHALGIRPANFHPRTTDFVEDIVEIIEKLVEKGFAYQTETGVYFDVRKFEKYGELSKKKIEDLIAGARVEVDETKKSPLDFSLWKKAKPGEPCWKSPWGEGRPGWHIECTVMSVKILGESFDIHAGGEDLVFPHHENEKAQAEALTGKVFARYWMHNGMVRFLGDKMSKSTGNIFTVREAVKRYGRDGLRYMILSKHYRSPMDFSEELLQDYSRAVKRVWEILGRYEKSGDIGIPKRNAVYEEYVNRFVEALDDDFNTPVAVSLIFELARNLSKAMDDNDREDALLYYHLIRREFGPVLGLFDLNEEKKEVSSEELLKLLIEVRDVLRKEKRYDLSDRIRDRLREIGIILKDTPSGTEYTVE | not soluble |
| MATDTSSPKHEPIIIAVEPYGGSVRDHSPLLPLVYWDDAAVTRGDGVFETILFRHGRACNLERHAQRFRESAVLLDLPEPRLDHWVHATSMAVEKWFQQSESDAKCVWTYTRGRASTGHPSAWLTITAVPDCVIEQREQGVRVMTTPRGYHIDTSNSVPWVVIGAKTLNYASNMAALRWAKKEGFDDVIFTEQDRILEGATSTVVTFRGNKIRSPFPGGDVLPGTTQAALFDYATNLGWNCKLKDMDEVYLTEKADSVWLISSVRGATRVRRINDTKLPRPDNESEIRELIEAALTAL | not soluble |
| MWTEQHVKEIDSIIRKKEDEQLSLPIMEQKLQINNRRYLGSKYKLLEFICKVVRENCTSVSSVADIFGGTGVVADRFNKEGKDIIVNDILYSNYLAYLTWFSNEKVNITKIEKLIKFFNESEPTEDNYVSINFGGTYFTEYNARKIGYVREEIEKMSDELNAREKAILITSLIYAMDKVANTVGHYDAYRRKLDSIKEIKLLMPEFNDGLNNGNKIFKEDANELVRKISADLIYIDTPYNSRQYGDAYHLLENIAEWEKPDLVGVAKKMIDRSHIKSDYCTMKATSAFADLISNIKGKYILVSYNNMAQKGVGRSNAKISSEEIVEILETRGTVEIFETNFQAYTTGKTNIDDHKEILYLCEVSR | not soluble |
| MGSDKIHHHHHHMKLDLVRFFQACNPSKTLVVSKPEDRQYYIDFSKVRGAKIIEELGRTITRLSPEQPTCQLFTGHIGCGKSTELLRLKAELEQQGFHVVYFESSQSLDMADIDVTDILLAVAREVSQSLEAIKINLKPGYFKNLFTEISEFLQTPLDIGVEAELSVGIAKITAKTKDSPKLRGQLRQYLEPRTNGILESINKELLKPAREKLKQEGKKGLVVIIDNLDRVDNSLKPSGYYQPEYLFVERGEQLNQLNCHVVYTIPLVLIFSNALGRLINRFGIDPKVLPMVPVQVQDGSQFLQGITLLQQMVMARAFPGVSWEQSRHLITEVFDSLDTLERLCRVSGGHLRNLLMLLFRCLQQEDPPLSRECVDRVIKQRRNELTLAITPDEWELLHEVAQEKNLRGHERYDLLLRSMFVFEYRDEDGSWFDINPILAEAKEFRL | not soluble |
| MLSKITQELLKMNNVLLMRPDDSEFMIPDDWSGLNAKGITYEQDNRVTESFLPFKSFYCSPVCTTVELISQNNCFAMGIRYLLEKKRDLRLNHFKAFSHKCETKPDVLIMTGCTVADTYSIFSRIVEENIMKTMTPIVIITGHHSEDLCSLASKLGGVKIISPTEKIAKIENAINDAFNSKPKKIRFLTDILSPQQIETMKMVAQGRSVNEISAAMNISIKTVYAHKVRAINKLGIKKKVYEALFYKALIQFN | not soluble |
| QTVVTGKVIDSETSEPLIGVSVSTGQGASLRGVTTDMDGGFRFEVPAKSVLTFRCVGYATVTRSIGRGSQEDLGTILLDPQAIGLDEIQVIASVVPKDRMTPVPVSNIRVADIQAASLNVEFPELVKSTPSTYTTKGSGGFGDGRTNVRGFDTYNFGVLINGVPVNGMEDGKVYWSNWSGLMNQASTIQIQRGLGASKLGISSVGGTMNIITKTTDANTGGSAYVGMGNDGLHKESFSISTGMND | not soluble |
| MAHHHHHHMSSIKINKDESKRVHIWIKSAIGTPNRRQFKHKNIMYPYFRMYKSPYRARDSRTRQAFWPCVDKYPWHTHQKRWVDIEQLNLKFFSEFTNKDPSRKNLFETCHTLPFNGINCLFWNPIYLNSHKFFLKKNKKDANRGEDNNMEENDDVKENTIEGNDDVKEHAIEGYTNNNVNNHNDIINQYDENKKVIKINDFHYIVDKDVKNNTYFYLKYIKYSMRPFRGKLIGDIYLNQTKIRHNISAKGFVNGEWKYSYPHININKKIEHISLNNNLTSNDIYSNNINNLVIVDKYTYRPPLPKSYIFQKDIL | not soluble |
| MNPNFLDFEQPIADLQAKIEELRLVGNDNALNISDEISRLQDKSKALTENIFGNLSSWQIAQLARHPKRPYTLDYIGYLFSDFEELHGDRHFADDPAIVGGVARLDGSPVMVIGHQKGREVREKVRRNFGMPRPEGYRKACRLMEMAERFKMPILTFIDTPGAYPGIDAEERGQSEAIAWNLRVMARLKTPIIATVIGEGGSGGALAIGVCDQLNMLQYSTYSVISPEGCASILWKTAEKAPEAAEAMGITAERLKGLGIVDKVIDEPLGGAHRDPASMAESIRGELLAQLKMLQGLEMGELLERRYDRLMSYGAP | not soluble |
| ATADPGVRAMDYQQATDVVIARGLSQRGVPFSWAGGGINGPTRGTGTGANTVGFDASGLMQYAYAGAGIKLPRSSGAMYRVGQKILPQQARKGDLIFYGPEGTQSVAMYLGNNQMLEVGDVVQVSPVRTAGMAPYMVRVLGT | soluble |
| MAYFALGLATATKNRDGKIIEAFFPTPILAPSDALVAALAPIAGYQEGNQALDITAAQSAQLAAVFAAHQQAASAAFADKAANAKQPLVLVILASDDKPQSVAEGYLKLQLISHRLVKPHGTVLDGIFGLLHNIAWTNEGPIDLPELAERQIEARLAGRVLTVDCVDKFPKMVDYVVPAGIRIADTSRVRLGAHVGEGTTVMHEGFINFNAGTTGVSMVEGRISAGVVVGNGSDIGGGASIMGTLSGGGKVVVSIGENSLLGANAGLGFPLGDRCTVESGLYVTAGTKVRTLDKDGNQVDIVKARDLAGVSDLLFRRNSLTGQIECLANKSAVELNSELHKNN | not soluble |
| MSQEALKAPVVVLGAGLASVSFVAELRQAGYQGLITVVGDEAERPYDRPPLSKDFMAHGDAEKIRLDCKRAPEVEWLLGVTAQSFDPQAHTVALSDGRTLPYGTLVLATGAAPRALPTLQGATMPVHTLRTLEDARRIQAGLRPQSRLLIVGGGVIGLELAATARTAGVHVSLVETQPRLMSRAAPATLADFVARYHAAQGVDLRFERSVTGSVDGVVLLDDGTRIAADMVVVGIGVLANDALARAAGLACDDGIFVDAYGRTTCPDVYALGDVTRQRNPLSGRFERIETWSNAQNQGIAVARHLVDPTAPGYAELPWYWSDQGALRIQVAGLASGDEEIVRGEVSLDAPKFTLIELQKGRIVGATCVNNARDFAPLRRLLAVGAKPDRAALADPATDLRKLAAAVAA | soluble |
| MGSDKIHHHHHHVEMPGTTEPLGKMVKVEGKKDEHKGDFFLTTVQIARANLATMIYSHFNSFTSIYSEQEMTGGLNDAQFNRVNQFYMETAQNTAIYQAFKLANKPYELKYEGVYVLDIAKNSTFKNKLELADTITAVNGQQFTSSADMIAYVSKQKVGDSVTIEYTRIDGTKHKSTGKYIKIANGKTGIGISLVDHTEVVTTPKVTVNAGSIGGPSAGMMFTLEIYSQLTGKDLRNGREIAGTGTIEHDGSIGQIGGVDKKVATASKEGAKVFLVPDSGTKKESSNNYLGAKTAAKKLKTKMKIVPVKTIQDALDYLEK | not soluble |
| MGQVEVIDRRQSVFGDDIQLQKRSSSYEIISNGVFLMSTENGRSEREMVTLGAQHMKNAVHSVLIGGLGVGITADEAVHLNDHVQVHVVEIEPSVVEWQYRYLYPFSNQALEHERTAIIISDIQQWLRTNERTYDLICLDTDNGPDWMVHKQNASLYGKIGLELVRERVRVGGAVSFWSASASESFLHELETLFDRVYEHAVSISHTLPPDYVYVACRDLEHHHHHH | soluble |
| MKFIQNLTKIHQSTSHMAHAHRSDSAVDSQVASTLREDTVARFSMLMKHPRSLARPTVTWRPPSLKLVGLHSTISPQPHLVASISRRRIGPSVKARLKGFGVRQQPAYLMSVRISDSKSNNVSFEHAEQWMLQLVGPQYAECIHMITDHGQCPVFVWIVGGDFQPLPSPASMFQTFQAAA | not soluble |
| MGSDKIHHHHHHMASAATEGQLADWRTRALKLEDEVKKVIVGQDAAIRLINIAIFARGHVMLEGGVGVGKTTLLQSVARGIGGAYERIEGTVDLMPNDLVYHTFLGPEGRPQIDEGPLLRAGENLSVFFFNEINRARPQVHALMLRVMAERHLHAFKREYRLPHMVVFADRNQVEKNETFEIPSAARDRFMMEIPIHVPEDKALRKSLVFDTRFQHAEQLTHTVESGLLPFNMLNDFSDVVQNHVQSSQALEDYVIDLWDATQKPQDFGITLEGIDMQRLIQAGASPRGMGMLLKAARVHAWLMEREYVYPEDIHAVFHEVIAHRLVFNSMYESRRTVLARELTAKILQTVAVPS | not soluble |
